In patent publication US20090162360A1 (Hoffmann-La Roche, published 2009):

T1: human ANGPT2 (R&D Systems) (human, UniProt O15123 19-496, limits assumed)
T1 construct: also called hANGPT2; Ang-2
T1 sequence (looked up): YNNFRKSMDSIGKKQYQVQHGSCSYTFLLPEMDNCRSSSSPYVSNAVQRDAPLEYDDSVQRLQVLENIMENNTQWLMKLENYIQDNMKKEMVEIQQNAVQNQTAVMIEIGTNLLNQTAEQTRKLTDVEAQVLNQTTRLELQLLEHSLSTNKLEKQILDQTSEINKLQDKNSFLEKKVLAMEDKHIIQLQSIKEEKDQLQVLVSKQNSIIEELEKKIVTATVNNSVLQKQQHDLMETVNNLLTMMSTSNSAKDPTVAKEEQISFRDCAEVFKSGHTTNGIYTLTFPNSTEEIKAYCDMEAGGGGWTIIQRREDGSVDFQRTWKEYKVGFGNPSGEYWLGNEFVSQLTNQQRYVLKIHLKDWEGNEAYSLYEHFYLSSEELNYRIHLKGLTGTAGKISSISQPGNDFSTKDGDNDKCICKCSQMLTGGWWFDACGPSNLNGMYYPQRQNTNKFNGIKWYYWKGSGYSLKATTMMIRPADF

B1: monospecific, bivalent <ANGPT2> wildtype antibody (antibody, V domains shown)
VH: EVQLVQSGGGVVQPGRSLRLSCAASGFTFSSYGMHWVRQAPGKGLEWVSYISSSGSTIYYADSVKGRFTISRDNAKNSLYLQMNSLRAEDTAVYYCARDLLDYDILTGYGYWGQGTLVTVSS
VL: not shown
notes: Human IgG1/kappa antibody described in WO 2006/045049; also called wildtype <ANGPT2> antibody; <Ang-2> control antibody
B2: wildtype <IGF-1R> antibody (antibody, V domains shown)
VH: QVELVESGGGVVQPGRSQRLSCAASGFTFSSYGMHWVRQAPGKGLEWVAIIWFDGSSTYYADSVRGRFTISRDNSKNTLYLQMNSLRAEDTAVYFCARELGRRYFDLWGRGTLVSVSS
VL: EIVLTQSPATLSLSPGERATLSCRASQSVSSYLAWYQQKPGQAPRLLIYDASKRATGIPARFSGSGSGTDFTLTISSLEPEDFAVYYCQQRSKWPPWTFGQGTKVESKR
notes: Human IgG1/kappa antibody described in WO 2005/005635; also called <IGF-1R> wildtype antibody; original wildtype <IGF-1R> antibody

Columns and labels:
[1] = biological target: T2, recombinant human IGF-1R on I24 cells (human, UniProt P08069 31-1367); assay: cellular FACS IGF-1R-ANGPT2 bridging assay on I24 cells with 2 µg/mL hANGPT2, detection <ANGPT2>mIgG1-Biotin + Streptavidin-PE
T2 construct: whole, on cells; also called IGF-1R in I24 cells; I24 IGF-1R expressing cells (NIH3T3 cells expressing recombinant human IGF-1R)
Procedure: (§1) The assay principle is depicted in FIG. 10.
(§2) Briefly, 5×10E5 I24 cells per FACS tube were incubated with total purified antibody mix and incubated on ice for 1 h (titration 160 μg/ml mix). The respective purified antibodies wildtype <IGF-1R> and <ANGPT2> were applied to the I24 cells as controls. Unbound antibody was washed away with 4 ml ice cold PBS (Gibco)+2% FCS (Gibco), cells were centrifuged (5 min at 400 g) and bound bispecific antibody was detected with 50 μl 2 μg/mL human ANGPT2 (R&D Systems) for 1 h on ice. Subsequently, unbound ANGPT2 was washed away once or twice with 4 ml ice cold PBS (Gibco)+2% FCS (Gibco), cells were centrifuged (5 min at 400 g) and bound ANGPT2 was detected with 50 μl 5 μg/mL <ANGPT2>mIgG1-Biotin antibody (BAM0981, R&D Systems) for 45 min on ice; alternatively, cells were incubated with 50 μl 5 μg/mL mIgG1-Biotin-Isotype control (R&D Systems). Unbound detection antibody was washed away with 4 ml ice cold PBS (Gibco)+2% FCS (Gibco), cells were centrifuged (5 min at 400 g) and bound detection antibody was detected with 50 μl 1:400 Streptavidin-PE conjugate (Invitrogen/Zymed) for 45 min on ice protected from light. Unbound Streptavidin-PE conjugate was washed away with 4 ml ice cold PBS+2% FCS. […]

[2] = biological target: T1, human ANGPT2 (R&D Systems); assay: as above
Procedure: as §1, §2

| Binder | binding result [1] | binding result [2] |
| --- | --- | --- |
| B1 | no binding | – |
| B2 | – | no binding |
